Reference: publication PMC6023931 (Nature Communications, 2018)
Changes are numbered by the printed parent chain. Numbers in names are those of the source.

B1: ΔN-TLK2, unphosphorylated (N-terminal deletion, with coiled-coil region, kinase domain and C-tail) (domain or fragment, human, UniProt Q86UE8 191-772, looked up)
chain: TEHSCSSQKQISIQHRQTQSDLTIEKISALENSKNSDLEKKEGRIDDLLRANCDLRRQIDEQQKMLEKYKERLNRCVTMSKKLLIEKSKQEKMACRDKSMQDRLRLGHFTTVRHGASFTEQWTDGYAFQNLIKQQERINSQREEIERQRKMLAKRKPPAMGQAPPATNEQKQRKSKTNGAENETPSSGNTELKDTAPALGAHSLLRLTLAEYHEQEEIFKLRLGHLKKEEAEIQAELERLERVRNLHIRELKRIHNEDNSQFKDHPTLNDRYLLLHLLGRGGFSEVYKAFDLTEQRYVAVKIHQLNKNWRDEKKENYHKHACREYRIHKELDHPRIVKLYDYFSLDTDSFCTVLEYCEGNDLDFYLKQHKLMSEKEARSIIMQIVNALKYLNEIKPPIIHYDLKPGNILLVNGTACGEIKITDFGLSKIMDDDSYNSVDGMELTSQGAGTYWYLPPECFVVGKEPPKISNKVDVWSVGVIFYQCLYGRKPFGHNQSQQDILQENTILKATEVQFPPKPVVTPEAKAFIRRCLAYRKEDRIDVQQLACDPYLLPHIRKSVSTSSPAGAAIASTSGASNNSSSN
notes: Tousled-like kinase 2 (TLK2), human; lacks the 1-190 N-terminal fragment, holds the 191-450 region around the CC domains, the kinase domain and the C-tail; the text says once '1-191' and once '1-190' for the missing segment; also called TLK2L; source: E. coli NiCo21(DE3) or Rosetta (DE3) pLysS, co-expressed with lambda phosphatase, purified (Ni-NTA, monoQ, SEC)
B2: ΔN-TLK2-p, phosphorylated ΔN-TLK2 (domain or fragment, human, UniProt Q86UE8 191-772, looked up)
chain: B1 chain
modifications: autophosphorylated (not co-expressed with the lambda phosphatase); 41 phosphosites out of 67 possible Ser/Thr sites, mapped in Fig. 3c
notes: Tousled-like kinase 2 (TLK2), human; lacks the 1-190 N-terminal fragment, holds the CC region, the kinase domain and the C-tail; also called active homodimer (ΔN-TLK2); source: E. coli NiCo21(DE3) or Rosetta (DE3) pLysS, without lambda phosphatase, purified (Ni-NTA, monoQ, heparin, SEC)
B3: ΔN-TLK2-KD, kinase-dead ΔN-TLK2 (D613A) (domain or fragment, human, UniProt Q86UE8 191-772, looked up)
chain: B1 chain with D423A
notes: Tousled-like kinase 2 (TLK2), human; ΔN-TLK2 (lacks the 1-190 N-terminal fragment) with the D613A mutation; also called ΔN-TLK-KD; kinase-dead homodimer; source: E. coli NiCo21(DE3) or Rosetta (DE3) pLysS, purified

Target: the molecule itself
Test: SEC-MALS; samples at 1 mg/ml, Superdex 200 Increase 10/300, 20 mM Tris-HCl, 150 mM NaCl, 0.5 mM TCEP, pH 8.0; run in triplicates

| Protein | stoichiometry N | binding result |
| --- | --- | --- |
| B1 | 2 | – |
| B2 | – | binds |
| B3 | – | binds |
